# Data taken from IntAct's records for PubMed 18303947.
# B1: NMDA receptor synaptonuclear signaling and neuronal migration factor (Mus musculus), Q99NF2-1 (parent)
# chain: MGAAASRRRALRSEAMSSVAAKVRAARAFGEYLSQSHPENRNGADHLLADAYSGHDGSPEMQPAPQNKRRLSLVSNGRYEGSISDEAVSGKPAIEGPQPHVYTISREPALLPGSEAEAIELAVVKGRRQRERHPHHHSQPLRASPGSSREDISRPCQSWAGSRQGSKECPGCAQLVPGPSSRAFGLEQPPLPEAPGRHKKLERMYSVDGVSDDVPIRTWFPKENLFSFQTATTTMQAISVFRGYAERKRRKRENDSASVIQRNFRKHLRMVGSRRVKAQTFAERRERSFSRSWSDPTPMKADTSHDSRDSSDLQSSHCTLDEACEDLDWDTEKGLEAMACNTEGFLPPKVMLISSKVPKAEYIPTIIRRDDPSIIPILYDHEHATFEDILEEIEKKLNIYHKGAKIWKMLIFCQGGPGHLYLLKNKVATFAKVEKEEDMIHFWKRLSRLMSKVNPEPNVIHIMGCYILGNPNGEKLFQNLRTLMTPYKVTFESPLELSAQGKQMIETYFDFRLYRLWKSRQHSKLLDFDDVL
# Variants of: B1
# Settings: with Cabp1, O88751-1
# Chain of Cabp1, O88751-1 (O88751 whole entry): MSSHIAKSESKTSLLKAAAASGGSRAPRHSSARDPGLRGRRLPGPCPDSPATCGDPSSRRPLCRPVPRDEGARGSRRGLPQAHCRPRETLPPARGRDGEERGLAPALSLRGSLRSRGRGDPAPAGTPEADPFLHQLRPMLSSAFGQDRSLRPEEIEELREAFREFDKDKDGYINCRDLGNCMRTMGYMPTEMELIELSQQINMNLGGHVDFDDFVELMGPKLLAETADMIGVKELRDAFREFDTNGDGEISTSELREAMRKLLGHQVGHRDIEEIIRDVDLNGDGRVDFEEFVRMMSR
row,effect of a mutation on the interaction,Variant
1,disrupting interaction,MGAAASRRRALRSEAMSSVAAKVRAARAFGEYLSQSHPENRNGADHLLADAYSGHDGSPEMQPAPQNKRRLSLVSNGRYEGSISDEAVSGKPAIEGPQPHVYTISREPALLPGSEAEAIELAVVKGRRQRERHPHHHSQPLRASPGSSREDISRPCQSWAGSRQGSKECPGCAQLVPGPSSRAFGLEQPPLPEAPGRHKKLERMYSVDGVSDDVPIRTWFPKENLFSFQTATTTMQAISVERGYAERKRRKRENDSASVIQRNFRKHLRMVGSRRVKAQTFAERRERSFSRSWSDPTPMKADTSHDSRDSSDLQSSHCTLDEACEDLDWDTEKGLEAMACNTEGFLPPKVMLISSKVPKAEYIPTIIRRDDPSIIPILYDHEHATFEDILEEIEKKLNIYHKGAKIWKMLIFCQGGPGHLYLLKNKVATFAKVEKEEDMIHFWKRLSRLMSKVNPEPNVIHIMGCYILGNPNGEKLFQNLRTLMTPYKVTFESPLELSAQGKQMIETYFDFRLYRLWKSRQHSKLLDFDDVL [F241E]
